Assay results reported in patent US20150239933A1.
“And” between values parts separate entries of the source, which are not always exact repeats. Identical values can stand only once.

Columns and labels:
[1] = molecular target: assembled microtubules (containing ~25% of TUBB3) (porcine) (UniProt F1S6M7); experiment: SPR Biacore T200, assembled MTs immobilised, 1:1 model; mean of two experiments
[2] = molecular target: Porcine tubulin dimer (porcine); experiment: SPR Biacore T200, tubulin dimer immobilised, 1:1 model; mean of two experiments
[3] = molecular target: Human recombinant TUBB3 (human) (UniProt Q13509); experiment: SPR Biacore T200, 60 sec injection of 100 nM over immobilised tubulin β-3, reference-subtracted
[4] = molecular target: assembled microtubules (containing ~25% of TUBB3) (porcine) (UniProt F1S6M7); experiment: SPR Biacore T200, 60 sec injection of 100 nM over immobilised microtubules, reference-subtracted
[5] = molecular target: Porcine tubulin dimer (porcine); experiment: SPR Biacore T200, 60 sec injection of 100 nM over immobilised tubulin dimer, reference-subtracted
[6] = molecular target: assembled microtubules (containing ~25% of TUBB3) (porcine) (UniProt F1S6M7); experiment: SPR Biacore T200, assembled MTs amine-coupled to CM5, gp120 3.13-100 nM as analyte, 1:1 model; one of two experiments
[7] = molecular target: Porcine tubulin dimer (porcine); experiment: SPR Biacore T200, tubulin dimer amine-coupled to CM5, gp120 3.13-100 nM as analyte, 1:1 model; one of two experiments
[8] = molecular target: Human recombinant TUBB3 (human) (UniProt Q13509); experiment: SPR Biacore T200, TUBB3 immobilised, 1:1 model; mean of two experiments
[9] = molecular target: Human recombinant TUBB3 (human) (UniProt Q13509); experiment: SPR Biacore T200, TUBB3 amine-coupled to CM5, gp120 3.13-100 nM as analyte, 1:1 model; one of two experiments

Chain of Human recombinant TUBB3 (human) (Q13509 whole entry): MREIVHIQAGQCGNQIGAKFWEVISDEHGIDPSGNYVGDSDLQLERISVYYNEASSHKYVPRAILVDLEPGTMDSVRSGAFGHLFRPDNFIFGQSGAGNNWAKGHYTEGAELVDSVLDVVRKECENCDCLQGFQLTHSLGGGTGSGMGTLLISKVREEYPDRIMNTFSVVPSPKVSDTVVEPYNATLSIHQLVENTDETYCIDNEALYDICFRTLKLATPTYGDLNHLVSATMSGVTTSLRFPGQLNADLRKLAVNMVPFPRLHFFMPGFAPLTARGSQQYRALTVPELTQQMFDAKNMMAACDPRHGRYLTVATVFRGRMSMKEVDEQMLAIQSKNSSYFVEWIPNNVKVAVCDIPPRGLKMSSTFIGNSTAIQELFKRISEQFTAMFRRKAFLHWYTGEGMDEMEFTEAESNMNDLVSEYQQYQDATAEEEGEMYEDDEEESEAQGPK

Substance	Kd [1] [nM]	Kd [2] [nM]	response (2-1) RU [3]	response (4-1) RU [4]	response (3-1) RU [5]	Kd [6]	Kd [7]	Kd [8] [nM]	Kd [9]
gp120IIIB (from UniProt P04578 33-511)	10	12.3	35 RU and 44 RU	15 RU and 23.2 RU and 19 RU	14 RU and 18.6 RU and 21 RU	1.16 nM and 8.46 nM	1.69 nM and 7.68 nM		
gp120ADA	12	11.2				5.62 nM and 1.83 nM	5.4 nM and 1.71 nM	10.3	5.48 nM and 15.2 nM
